In this assay the test system is chicken fibroblast cell line SL29. Briefly: Cell attachment assay, fibroblasts on protein-coated solid support. It counts as cell-based. Conditions: for SL29 fibroblast attachment to coated substrate (words): CT coated at 20 μg/ml, binding fragments at 0.75 μM, non-binding at three times that, 1 hour; for spreading of SL29 cells on substrate: coated at 0.75 μM. The procedure: In the cell attachment assays, a single cell suspension was allowed to settle for a fixed period of time onto a solid support that has been coated with the different CT-derived proteins to be tested for cell attachment (Friedlander, et al., J. Cell Biol. 107: 2329-2340 (1988)). After removing the unbound and loosely bound cells by washing, the attachment and morphology of those cells remaining on the dish were analyzed.
Solid supports, consisting of a circular array of CT or CT:GST fusion proteins bound to a dish, were prepared as follows for the cell attachment assay.
For the initial study, non tissue-culture treated polystyrene plates (Falcon 1008) were spotted with 2 μl of a 0.5 to 1.5 μM solution of CT in PBS for 30 minutes to coat a specific area on the dish with CT. CT was isolated from chicken brain or from fibroblast culture supernatant as described in Crossin, PNAS 88: 11403-11407 (1991) and Hoffman et al., J. Cell Biol. 106: 519-532 (1988). CT was placed in a circular array near the center of the dish and incubated at 37° C. for 30 minutes. After CT had adsorbed to the dish, the central portion of the dish was washed once with 250 μl of 20% (w/v) BSA in PBS. Non-specific binding sites on the dish were then blocked with 250 μl of 20% (w/v) BSA in PBS by incubation for 2 to 3 hours at room temperature.
For the subsequent study with the CT:GST fusion proteins, non tissue-culture treated polystyrene plates (Falcon 1008) were spotted with 2 μl of a 0.5 to 1.5 μM solution of CT:GST fusion protein in PBS as prepared in Example 5.A.2 or GST in PBS for 30 minutes to coat a specific area on the dish with CT:GST fusion protein or GST. The proteins to be tested were placed in a circular array near the center of the dish and incubated at 37° C. for 30 minutes. After the proteins adsorbed to the dish, the central portion of the dish was washed once with 250 μl of 20% (w/v) BSA in PBS. Non-specific binding sites on the dish were then blocked with 250 μl of 20% (w/v) BSA in PBS by incubation for 2 to 3 hours at room temperature.
The chicken fibroblast cell line SL29 (ATCC CRL 1590) was grown to confluence in Dulbecco's Minimum Essential Medium (DMEM; Gibco-BRL, Gaithersburg, Mass.) with 10% (v/v) fetal calf serum (FCS; Gibco-BRL) with penicillin and streptomycin. The cells were passaged the night prior to the assay and seeded at a density of 1:2. Cells were harvested in calcium, magnesium-free Hank's balanced salt solution (CMF-HBSS, Gibco-BRL) with 20 mM Hepes buffer and 5 mM EDTA. Harvested cells were washed in attachment buffer (CMF-HBSS with 10 mM Hepes, 1 mM CaCl2, 1 mM MgCl2, 0.1 mM MnCl2, and 2% (w/v) bovine serum albumin (BSA)) three times. The number of cells was quantitated by counting the cells in a hemocytometer. The cells were resuspended in attachment buffer to a density of 6×10^5 cells/ml.
Chicken fibroblasts, DRG, and solid supports (dishes) coated with CT for use in the cell attachment assays were prepared as described in Examples 5.A.2-4, respectively. The chicken fibroblasts and DRG at a density of 6×10^5 cells/ml were added to the prepared dishes and incubated at 37° C. in 5% CO2 for 1 hour. The dishes were then washed three times in PBS with gentle swirling to remove unattached cells, fixed in 1% glutaraldehyde in PBS, and viewed by phase contrast microscopy. The number of bound cells was determined using a 10× objective with an eyepiece reticle. The number of cells was determined in four fields for each fusion protein dot as the number of cells bound per […]. CT was tested in triplicate. The number of cells bound for CT was expressed as the average of the twelve measurements±standard deviation […].
CT, coated at a concentration of 20 μg/ml, was used as a solid support for SL29 fibroblast attachment. […] Fragments of CT were generated using the pGEX fusion protein system, as described in Example 1. The cell attachment assay was performed essentially as described above for the cell attachment assay to intact CT. […]

Entries after “also recorded” stand apart in the source; their conditions may differ.

B1: CTfg: CT:GST fusion protein, entire fibrinogen domain, residues 1570-1810 of SEQ ID NO 4 (protein)
chain: SMRSKMIQTVFTTTGLLYPYPKDCSQALLNGEVTSGLYTIYLNGDRTQPLQVFCDMAEDGGGWIVFLRRQNGKEDFYRNWKNYVAGFGDPKDEFWIGLENLHKISSQGQYELRVDLRDRGETAYAVYDKFSVGDAKTRYRLRVDGYSGTAGDSMTYHNGRSFSTFDKDNDSAITNCALSYKGAFWYKNCHRVNLMGRYGDNNHSQGVNWFHWKGHEYSIQFAEMKLRPSSFRNLEGRRKRA
modifications: left off: a dimerising Fc or GST
For the molecule B1, the “SL29 fibroblast attachment to coated substrate (words)” value (shortened to “SL29 fibroblast attachment”) was “robust SL29 cell attachment was supported; also recorded: readily attached; also recorded: attached well” and the “spreading of SL29 cells on substrate” value was “little or no spreading”.

B2: CTfn3: CT:GST fusion protein, fibronectin type III repeat III, residues 774-864 of SEQ ID NO 4 (protein)
chain: LDAPSQIEAKDVTDTTALITWSKPLAEIEGIELTYGPKDVPGDRTTIDLSEDENQYSIGNLRPHTEYEYEVTLISRRGDMESDPAKEVFVT
modifications: left off: a dimerising Fc or GST
Consider B2, for which the “SL29 fibroblast attachment” value is given as “robust SL29 cell attachment was supported; also recorded: readily attached; also recorded: attached well” and the “spreading of SL29 cells on substrate” value is listed as “exhibited cell spreading; also recorded: spreading of cells was observed”.

B3: CTfn6: CT:GST fusion protein, fibronectin type III repeat VI, residues 1318-1398 of SEQ ID NO 4 (protein)
chain: VVGSPKGISFSDITENSARVSWTPPRSRVDSYRVSYVPITGGTPNVVTVDGSKTRTKLVKLVPGVDYNVNIISVKGFEESE
modifications: left off: a dimerising Fc or GST
As to B3, the “SL29 fibroblast attachment” value was “robust SL29 cell attachment was supported; also recorded: supports both fibroblast and neuronal cell attachment”; the “spreading of SL29 cells on substrate” value is “little or no spreading”. The “SL29 fibroblast attachment” value (listed as Ctfn6) was “support fibroblast and neuronal cell attachment”. Moreover, under “listed as sixth repeat”, the “SL29 fibroblast attachment” value is given as “fibroblast attachment activity was localized to the sixth repeat”.

The values above are taken from patent US6482410B1, “Cytotactin derivatives that stimulate attachment and neurite outgrowth, and methods of making same” (The Scripps Research Institute, priority 1994, dated 2002).
